Our source for the binding capacity relative to IM(18-29) values is paper PMC2119237.

The target of this assay is HLA-DR1 (human (endogenous in WT-100)). Nature of the assay: SEC.

Where no end group is shown, it is not given here. The star is where a group is joined. AMCA = 7-amino-4-methyl-coumarin-3-acetic acid, Cc1c(CC(=O)*)c(=O)oc2cc(N)ccc12

B1: AMCA-SP3(1-16), synthetic self-peptide SP3 labelled at the NH2 terminus (peptide)
peptide: {AMCA}-AILEFRAMAQFSRKTD
As to B1, the binding capacity relative to IM(18-29) stood at 3 fold.
